Measurements as given in patent publication US20230050615A1 (Ablynx, published 2023).
Each block holds one binder with its values, some of them ahead of it.

What was measured:
[1] = molecular target: T1, human serum albumin (Sigma-Aldrich A3782) (human, UniProt P02768 25-609); assay: competition ELISA on coated human serum albumin; tracer 1.5 nM [SEQ ID NO:1-cMycHis6] detected with anti-cMyc
T1 construct: Bought protein; also called HSA; human SA

[2] = molecular target: T1, human serum albumin (Sigma-Aldrich …); assay: SPR (ProteOn), HSA immobilised, 500 nM injected, dissociation at pH 5.0
[3] = molecular target: T1, human serum albumin (Sigma-Aldrich …); assay: SPR (ProteOn), HSA immobilised, 500 nM injected, dissociation at pH 7.4
[4] = molecular target: T1, human serum albumin (Sigma-Aldrich …); assay: SPR (ProteOn), HSA immobilised, 500 nM injected, dissociation at pH 6.0
[5] = molecular target: T1, human serum albumin (Sigma-Aldrich …); assay: SPR (ProteOn XPR36), albumin immobilised, pH 7.4
[6] = molecular target: T2, guinea pig serum albumin (Gentaur GPSA62) (guinea pig); assay: SPR (ProteOn XPR36), albumin immobilised, pH 7.4
T2 construct: also called guinea pig SA

[7] = molecular target: T3, mouse serum albumin (Albumin Bioscience 2601) (mouse, UniProt P07724 25-608); assay: SPR (ProteOn XPR36), albumin immobilised, pH 7.4
T3 construct: Bought protein; also called mouse SA

[8] = molecular target: T4, rat serum albumin (Sigma-Aldrich A4538) (rat, UniProt P02770 25-608); assay: SPR (ProteOn XPR36), albumin immobilised, pH 7.4
T4 construct: Bought protein; also called rat SA

[9] = molecular target: T5, cynomolgus monkey serum albumin (generated in-house) (cynomolgus monkey, UniProt A2V9Z4 25-608, limits assumed); assay: SPR (ProteOn XPR36), albumin immobilised, pH 7.4
T5 construct: also called cyno SA

IC50 (read off the curve) [1]: ~0.8 nM
B1: [His6Flag3-SEQ ID NO:15] (VHH)
VHH: EVQLVESGGGLVQAGGSLRLSCAASGLTFSSYAMGWFRQAPGKERERVVSISRGGGYTYYADSVKGRFTISRDNAENTVYLQMNSLKPEDTAVYYCAAARYWATGSEYEFDYWGQGTLVTVSS
notes: not shown: N-terminal His6-Flag3 tag

koff [2]: 5.8e-05 s⁻¹ | koff [3]: 0.00011 s⁻¹ | koff [4]: 6.9e-05 s⁻¹ | Kd [5]: 0.19 nM | koff [5]: 0.00015 s⁻¹ | kon [5]: 810000 M⁻¹ s⁻¹ | Kd [6]: 1.5 nM | koff [6]: 0.0021 s⁻¹ | kon [6]: 1.4e+06 M⁻¹ s⁻¹ | Kd [7]: 1.9 nM | koff [7]: 0.0024 s⁻¹ | kon [7]: 1.2e+06 M⁻¹ s⁻¹ | Kd [8]: 21 nM | koff [8]: 0.022 s⁻¹ | kon [8]: 1e+06 M⁻¹ s⁻¹ | Kd [9]: 0.12 nM | koff [9]: 9.4e-05 s⁻¹ | kon [9]: 770000 M⁻¹ s⁻¹
B2: serum albumin binder of SEQ ID NO:15 (T0235005D04, wild type) (VHH)
VHH: B1 VHH
notes: no tag is stated for these experiments
